Molecular target: Triggering receptor expressed on myeloid cell-1 (TREM-1), human (human) (UniProt Q9NP99)
Assay: cell-based or functional assay

UniProt Q9NP99, sequence (Q9NP99 21-234): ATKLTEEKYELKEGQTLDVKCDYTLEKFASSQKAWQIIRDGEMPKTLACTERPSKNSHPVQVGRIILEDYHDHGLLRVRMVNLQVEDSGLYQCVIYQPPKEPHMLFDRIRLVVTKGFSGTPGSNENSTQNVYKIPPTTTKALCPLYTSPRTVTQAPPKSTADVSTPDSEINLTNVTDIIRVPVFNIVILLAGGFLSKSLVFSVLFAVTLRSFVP

CSF2 (GM-CSF) mRNA induction (microarray, human monocytes): 9.6 fold
INHBA transcript fold change (microarray, human monocytes), confirmed at protein level by ELISA: 96.7 fold
M-CSF transcript fold change (microarray, human monocytes), confirmed at protein level by ELISA: 22 fold
SPP1 transcript fold change (microarray, human monocytes, 2 hours, α-TREM-1 against control antibody): 28 fold
Substance: anti-hTREM-1 antibody (MAB1278, R&D Systems)

Reference: US20080247955A1
